# Patent US20150203577A1 (Chugai, published 2015)
# T1: mouse FcγRIII (mouse, UniProt P08508 31-215)
# T1 construct: also called mFcγRIII; mFcgRIII
# T1 chain: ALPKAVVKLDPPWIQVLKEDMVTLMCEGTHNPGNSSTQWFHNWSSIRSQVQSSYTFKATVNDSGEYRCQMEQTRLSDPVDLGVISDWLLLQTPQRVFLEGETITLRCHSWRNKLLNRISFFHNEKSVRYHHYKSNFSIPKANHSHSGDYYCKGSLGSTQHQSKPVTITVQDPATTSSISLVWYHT
# T2: mouse FcγRIII extracellular domain, C-terminally His-tagged (mouse, UniProt P08508 31-215)
# T2 construct: the whole entry is named; also called mFcγRIII; mFcgRIII
# T2 chain: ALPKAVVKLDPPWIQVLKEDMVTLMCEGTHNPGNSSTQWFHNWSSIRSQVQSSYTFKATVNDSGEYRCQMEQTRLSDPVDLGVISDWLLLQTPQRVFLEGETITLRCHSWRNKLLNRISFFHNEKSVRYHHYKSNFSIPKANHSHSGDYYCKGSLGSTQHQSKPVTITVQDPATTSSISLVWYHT
# T3: mouse FcγRII extracellular domain, C-terminally His-tagged (mouse, UniProt P08101 30-210)
# T3 construct: the whole entry is named; also called mFcγRII; mFcgRII
# T3 sequence: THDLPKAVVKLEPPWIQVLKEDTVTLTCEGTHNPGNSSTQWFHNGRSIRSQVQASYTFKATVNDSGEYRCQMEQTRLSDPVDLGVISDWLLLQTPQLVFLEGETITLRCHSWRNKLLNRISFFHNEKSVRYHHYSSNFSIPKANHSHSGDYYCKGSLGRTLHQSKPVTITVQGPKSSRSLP
# B1: H237-MB697/MRAL-k0 (antibody, mouse IgG1, kappa)
# heavy: QVQLQESGPGLVKPSETLSLTCAVSGHSISHDHAWSWVRQPPGEGLEWIGFISYSGITNYNPSLQGRVTISRDNSKNTLYLQMNSLRAEDTAVYYCARSLARTTAMDYWGEGTLVTVSSAKTTPPSVYPLAPGSAAQTNSMVTLGCLVKGYFPEPVTVTWNSGSLSSGVHTFPAVLQSDLYTLSSSVTVPSSTWPSETVTCNVAHPASSTKVDKKIVPRDCGCKPCICEPPEVEFVFIFPPKPKDVLTITLTPKVTCVVVDISKDDPEVQFSWFVDDVEVHTAQTQPREEQFNSTFRSVSELPIMHQDWLNGKEFKCRVNSAAFPAPIEKTISKTKGRPKAPQVYTIPPPKEQMAKDKVSLTCMITDFFPEDITVEWQWNGQPAENYKNTQPIMDTDGSYFVYSKLNVQKSNWEAGNTFTCSVLHEGLHNHHTEKSLSHSPGK
# light: not shown
# notes: copies: 2 + 2
# B2: H237-MB367/MRAL-k0 (antibody, mouse IgG1, kappa)
# heavy: QVQLQESGPGLVKPSETLSLTCAVSGHSISHDHAWSWVRQPPGEGLEWIGFISYSGITNYNPSLQGRVTISRDNSKNTLYLQMNSLRAEDTAVYYCARSLARTTAMDYWGEGTLVTVSSAKTTPPSVYPLAPGSAAQTNSMVTLGCLVKGYFPEPVTVTWNSGSLSSGVHTFPAVLQSDLYTLSSSVTVPSSTWPSETVTCNVAHPASSTKVDKKIVPRDCGCKPCICEANEVEDVFIFPPKPKDVLTITLTPKVTCVVVDISKDDPEVQFSWFVDDVEVHTAQTQPREEQFNSTFRSVSELPIMHQDWLNGKEFKCRVNSAAFPAPIEKTISKTKGRPKAPQVYTIPPPKEQMAKDKVSLTCMITDFFPEDITVEWQWNGQPAENYKNTQPIMDTDGSYFVYSKLNVQKSNWEAGNTFTCSVLHEGLHNHHTEKSLSHSPGK
# light: not shown
# notes: T230E/V231A/P232N/S238E/S239D (EU) against H237-mIgG1; copies: 2 + 2
# B3: H237-mF46/MRAL-k0 (antibody, mouse IgG1, kappa)
# heavy: QVQLQESGPGLVKPSETLSLTCAVSGHSISHDHAWSWVRQPPGEGLEWIGFISYSGITNYNPSLQGRVTISRDNSKNTLYLQMNSLRAEDTAVYYCARSLARTTAMDYWGEGTLVTVSSAKTTPPSVYPLAPGSAAQTNSMVTLGCLVKGYFPEPVTVTWNSGSLSSGVHTFPAVLQSDLYTLSSSVTVPSSTWPSETVTCNVAHPASSTKVDKKIVPRDCGCKPCICTVPEVSDVFIFPPKPKDVLTITLTPKVTCVVVDISKDDPEVQFSWFVDDVEVHTAQTQPREEQFNSTFRSVSELPIMHQDWLNGKEFKCRVNSADFPAPIEKTISKTKGRPKAPQVYTIPPPKEQMAKDKVSLTCMITDFFPEDITVEWQWNGQPAENYKNTQPIMDTDGSYFVYSKLNVQKSNWEAGNTFTCSVLHEGLHNHHTEKSLSHSPGK
# light: not shown
# notes: S239D/A327D (EU) against H237-mIgG1; copies: 2 + 2
# What was measured:
# mouse FcγRIII = target: T1, mouse FcγRIII; assay: SPR Biacore T200
# Description: The antibody H chain variable region used was the variable region H237 (SEQ ID NO: 1) of the H chain VH3-IgG1 of the anti-IL-6 receptor antibody Fv4-IgG1 described in WO2009/125825. The antibody L chain commonly used was the L chain MRAL-k0 (SEQ ID NO: 2) of the anti-IL-6 receptor antibody tocilizumab. The aforementioned 11 variants were used as templates to introduce the alteration. These variants were expressed and purified by the method of Reference Example 1 and evaluated for their binding to mFcγRII and mFcγRIII by the method of Reference Example 2 using Biacore T200.
# Each altered antibody was analyzed for its interaction with each Fcγ receptor prepared above using Biacore T100 (GE Healthcare Japan Corp.), Biacore T200 (GE Healthcare Japan Corp.), Biacore A100, or Biacore 4000. The running buffer used was HBS-EP+ (GE Healthcare Japan Corp.). The assay temperature was set to 25° C. […]
# In order to calculate the KD value of each altered antibody for FcγR, kinetic analysis was conducted according to the following method: first, the antibody of interest was captured onto any of these chips and allowed to interact with mFcγR diluted with a running buffer. […] From these values, the dissociation constant KD (mol/L) was calculated.
# [1] = target: T2, mouse FcγRIII extracellular domain, …; assay: SPR Biacore T200, KD ratio
# Procedure: (§1) As for alterations, “X000Z” represents the substitution of amino acid X at EU numbering position 000 by amino acid Z. In this context, X and Z represent the one-letter codes of the amino acid residues.
# (§2) Each altered antibody was analyzed for its interaction with each Fcγ receptor prepared above using Biacore T100 (GE Healthcare Japan Corp.), Biacore T200 (GE Healthcare Japan Corp.), Biacore A100, or Biacore 4000. The running buffer used was HBS-EP+ (GE Healthcare Japan Corp.). The assay temperature was set to 25° C. The sensor chips used were chips prepared by immobilizing Protein L (ACTIGEN or BioVision) onto Series S Sensor Chip CM5 (GE Healthcare Japan Corp.) or Series S Sensor Chip CM4 (GE Healthcare Japan Corp.) by the amine coupling method.
# (§3) In order to calculate the KD value of each altered antibody for FcγR, kinetic analysis was conducted according to the following method: first, the antibody of interest was captured onto any of these chips and allowed to interact with mFcγR diluted with a running buffer. For the obtained sensorgram, the assay results were globally fit into the 1:1 Langmuir binding model using Biacore Evaluation Software to calculate an association rate constant ka (L/mol/s) and a dissociation rate constant kd (1/s). From these values, the dissociation constant KD (mol/L) was calculated.
# [2] = target: T3, mouse FcγRII extracellular domain, …; assay: SPR Biacore T200, KD ratio
# Procedure: as §1, §2, §3
# [3] = target: T2, mouse FcγRIII extracellular domain, …; assay: SPR Biacore T200, antibody captured on Protein L
# Procedure: as §1, §2, §3
# [4] = target: T3, mouse FcγRII extracellular domain, …; assay: SPR Biacore T200, antibody captured on Protein L
# Procedure: as §1, §2, §3
binder,measurement,setting,value
B1,binding result,mouse FcγRIII,no binding
B2,relative mFcγRIII-binding activity (mIgG1 = 1),[1],6.2 fold
same,relative mFcγRII-binding activity (mIgG1 = 1),[2],159 fold
same,Kd,[3],45.4 nM
same,Kd,[4],1.32 nM
B3,relative mFcγRIII-binding activity (mIgG1 = 1),[1],44 fold
same,relative mFcγRII-binding activity (mIgG1 = 1),[2],158 fold
same,Kd,[3],6.4 nM
same,Kd,[4],1.33 nM
